# Experiment: soluble on expression in E. coli; label from the status in PepcDB or PDB records
row,Sequence,soluble on expression in E. coli
1,MSLEVPLLEVLLYTDGSVTRILERFFEEVTIDPLETRKLKVEGREARLLGVPDGDTVYVRRVVIKVDGRPAILATSLARPDNLPGRLRRLVLQSRKPLGKMIEELRLETRREILRVEEARPSPEDEEILDVSVPKIPWREYLVYHRRTPMLLIRERFNPEVLGREGEGHHHHHH,not soluble
2,MEKSAGRGRPSVSVERIVATALEAVDEVGAQAFNMRMLAERLGSGTATLYRHFASKDEILIYVVDSVLGELLADQPEAVELVPQGQGSEGYSWQKACASGAERLYGVLRRHPGILPLLVSQIPIGPNGLKRREQGIALFLANGFPAELAARAYTSVAHYVLGFAIQQHSSASSEAAEGEELVEFFAALDASEYPAIATAGRHLPGISVEEEFRFGLKLIIDGLELAASAWRKADGC,not soluble
3,MSLAEIAYITAKADLPFWDTVGKGVKAVAEANGYAFSELDSKLSAEMQLNNVRQAIDRRVAGIVISPTNSKSAEEALILARRAKIPVAIADIGASGGDYVSFVKSDNYRGAYDVGTELAKAMKAQNWASGAYGMVTIELSRKNGQDRTNGFRDAMKDAGFPREIVLRQMKDYSAEETYRYVKEMLAAHPGLRGFFIETDQPVAGALRAIREAGKEKQLLLVSFDAMPDVVRLLKSGALVAVGMQQPYLMGSSAAGALVSRLRGHPPAKEILVPVLVATGRNVDQLMPVAARTVFGKPLKEGHHHHHH,soluble
4,DDFETSLTELEPLEKDAYIVRLVFAGSTTTEPIVSSLSTAYDIKINILEANIKNTKNGTVGFLVLHIPYISSVDFGKFEKELIERQVKMEVLRHG,soluble
5,MADNLPSDFDVIVIGTGLPESIIAAACSRSGQRVLHVDSRSYYGGNWASFSFSGLLSWLKEYQENNDVVTENSMWQEQILENEEAIPLSSKDKTIQHVEVFCYASQDLHKDVEEAGALQKNHASVTSAQSAEAAEAAETSCLPTAVEPLSMGSCEIPAEQSQCPGPESSPEVNDAEATGKKENSDAKSSTEEPSENVPKVQDNTETPKKNRITYSQIIKEGRRFNIDLVSKLLYSRGLLIDLLIKSNVSRYAEFKNITRILAFREGTVEQVPCSRADVFNSKQLTMVEKRMLMKFLTFCVEYEEHPDEYRAYEGTTFSEYLKTQKLTPNLQYFVLHSIAMTSETTSCTVDGLKATKKFLQCLGRYGNTPFLFPLYGQGELPQCFCRMCAVFGGIYCLRHSVQCLVVDKESRKCKAVIDQFGQRIISKHFIIEDSYLSENTCSRVQYRQISRAVLITDGSVLKTDADQQVSILTVPAEEPGSFAVRVIELCSSTMTCMKGTYLVHLTCMSSKTAREDLERVVQKLFTPYTEIEAENEQVEKPRLLWALYFNMRDSSDISRDCYNDLPSNVYVCSGPDSGLGNDNAVKQAETLFQQICPNEDFCPAPPNPEDIVLDGDSSQQEVPESSVTPETNSETPKESTVLGNPEEPSE,soluble
6,AHHHHHHGSIDDLVERMRKGDRRAVARLITLVENDEKKAREIIKRIYPLTGNAYIVGITGPPGSGKSTLVDKLVKEARKEGLIVGVIAVDPTSPFTGGALLGDRIRMQDHATDPGVFIRSMATRGSLGGLAKATNDAIKILDAYGCDIIFVETVGVGQVEVDIVKTADTVVLVTVPGLGDDIQAIKAGLMEIADIFVLNKADREGADATYFELSLTLDLESEKWEKLGWRPPIVETVATLGKGIKELWEQIKRHREFLEKSGKLEEKKRLRVEEEIKTIVSDMIAKKVEVSIKAGNLEDILEKVMKKELDPYSAASLIMEKIIGGGKSV,soluble
7,MRLIMKPEHSTRGRVIFVGAGPGNPDLLTVRAREVLGSTANAVVDSTVGVGIRAVIAEHLEVPQAKLDAAEAEYERMCAAAKRRKPPRPDAPTAAEITEVSADASVDEVMAVLLPLLDEGDVIRLVQGNPLADSRALDEITAVTQVGADFQIVPGMSLPAAVPAFAGITLGDSYTKTTVSEDTNWDQLATAPLPLILQASKDDLLTIAMELKDRKLPASTPVTVTMNGTTRLQRSFDVTLKTMKSLVKQELDGTLVVTVGVSDRSTFSWWESRALFGWRVLVPRAKDQAGPMSSRIAAYGAIAQEVPTISVEPPRNPAQLERAIKGIVEGRYQWVVFTSVNAVKAVREKIVSFGLDSRAFAGVHIAAVGAKTAAAIREFGITPELIPPRKEHNAAGMVSVFPNYVEGLDPVGRVLLPRADIATDVLVDGLVNLGWEVDDVVAYRTVRAAPPSAEVRDMIKSGDFDAVCFTSASTVRNLVGIAGKPHARTIIACIGPMTAAEAEKQGLRVDVIPEVANVAALVDALAEHVEKLRAAGELPPPRKKRRARRKSKEGAV,not soluble
8,DFVHIMTPYLILDGELLHALKFAAERGVDVIIIMPGIPDKKSAYYLAKTYYPTLLASGVKIYEYTPGFIHAKVFVSDNSRAVVGTINLDYRSLYHHFECATYLYGTSSVLDIEEDFQATKDQCHRVSTTDVKNLPFYQKTLGLLARLVAP,not soluble
9,SMSDVTIVKEGWVQKRGEYIKNWRPRYFLLKTDGSFIGYKEKPQDVDLPYPLNNFSVAKCQLMKTERPKPNTFIIRCLQWTTVIERTFHVDTPEEREEWTEAIQAVADRLQRQEEERMN,soluble
10,GKLDEFEAWMRTITKLDIVSLMDFNWGKGGLIKGEKVMNRLGDILGDLHIEDLSIPYTAVAADISNEKEVWLQKGSLLQAIRASISLPLYLMPIEFNGKTLIDGGVLNPVPIA,not soluble
11,MELTLHEARVIGCLLEKEVTTPEQYPLSLNALTLACNQKTSREPVLELTEAQVQDALDSLNKKRLISEQSGFGSRVVKYKHRFCNTEFSELQLSTAAVAIVCLLLLRGPQTPGELRTRSNRLHDFKDVLEVEACIKQLMERDKPVLTQLPREPGKRECRYTELFSQGSEQVSATSLSADSPSADSNSLNAQDRQQLEARVTQLEGQVAELKDKLESLIASLS,soluble
12,MFASKDINDLIAIVAGLRNRESGCIWNIKQTFESLIPYMLEEVYEVIDAIERKNRTDLCDELGDLLLQVVYHATIAQEEGSFTFEDVVYAITSKMIRRHPHVFGNAEQKKRGFIEDEWERIKKTERAEQNKCYEAVNLPTNSTTSILEKIKKLQPAHQEALALQKAAATVGFNWHESHKFFAKIEEEINELKDAIKNDKTSDIEAEFGDLYFSLLNLALHLNIDSQKALKKTNTKFRNRFTYIEESLYTQSKTLANTSLKEMESLWNKAKNKK,not soluble
13,MTIRSYKNLNLVRANIETESRQFIENKNYSIQSIGPMPGSRAGLRVVFTRPGVNLATVDIFYNGDGSTTIQYLTGANRSLGQELADHLFETINPAEFEQVNMVLQGFVETSVLPVLELSADESHIEFREHSRNAHTVVWKIISTSYQDELTVSLHITTGKLQIQGRPLSCYRVFTFNLAALLDLQGLEKVLIRQEDGKANIVQQEVARTYLQTVMADAYPHLHVTAEKLLVSGLCVKLAAPDLPDYCMLLYPELRTIEGVLKSKMSGLGMPVQQPAGFGTYFDKPAAHYILKPQFAATLRPEQINIISTAYTFFNVERHSLFHMETVVDASRMISDMARLMGKATRAWGIIKDLYIV,soluble
14,MDVNTASQSTTDEQMMDILLVLDKEKKTISAVKGVDENGELQTVPPENNSELLKFDRHGDFFSNFFSNMMNQLKNPTRFNFFKIPKIELPKIEPIIRDNFNHPTPENEAGIERYRVTPETVKQEAKKEQQETQAQQPQQPAKEAGAMAQTPQQPDKSKYVIDPDKVDWEALKNFGLSKEQLEKAKALEPMLRGYKSPGAFTIAGNYNSAIMKLDARLSFRHDKDGNVVLAIHGIRQKPELERPFFGHEFSKEDKANLLETGNMGRIVNLKNYITGEMIPSFVSVDKVTNELVSMRASSVQIPDEIKGVKLNKEQKQALREGKGVFLENMISNRKNPFSATVQVNADKKSLEFIYPNAKQSQEQGQKQTQQNSLVTSDGVTIPKSISGIELSRQQQQDLVNDKTIFVAGLKDKRGVEYDAYIQVNHDKKKLGFYSDNPSFDRSAVKEITPASKNRTQVAVNSEGKTNEATKKVKEPLKKGQDKPTEKQKTKQDKKEKQEQTDKPKQSRGRKR,not soluble
15,MPDLAGDLAAVLPPRPDTPGGEALPTDSGDVLRQGDILGRRVQSVRLGWDQLTSVQLWMCEQVLGIESAAEDEKPRRTRADKWALNYQAAKQFYEREGHLQVARKWVERIVIGGDGDGGDDKEEREHKLGARIGIQRSRAATPTPERMELLSAIGMRWSLEHHHHHH,not soluble
16,GALPSHNKASFTDEEDEFILDVVRKNPTRRTTHTLYDEISHYVPNHTGNSIRHRFRVYLSKRLEYVYEVDKFGKLVRDDDGNLIKTKVLPPSIKRKFSADEDYTLAIAVKKQFYRDLFQIDPDTGRSLITDEDTPTAIARRNMTMDPNHVPGSEPNFAAYRTQSRRGPIAREFFKHFAEEHAAHTENAWRDRFRKFLLAYGIDDYISYYEAEKAQNREPEPMKNLTNRPKRPGVPTPGNYNSAAKR,soluble
17,MLQLKNIGILSTYNSKTDSFDYLKNCNIDIENGIIIGLGDSNHNGDQVIDCNHKLVTPGFVDAHTHPVFVNGREKEFIERISGKSYQEISNKGGGINSSIIRVREIDEIDLLDLVIKRMDDFIYMGTTTIEAKTGYGLNTDSELKSLRVLENAHNKHKIDIFPTFLGAHSVPNEYNGDSNAYTDLLCNEMIPAVAKQGIAKFCDVFCEEEYFDCNQSRKILEKAVEYGLIPRMHTDEFSSIGGVKIASKINAISADHLMEISDEDIELLANSNTIAILLPGTTFFLGKTTYAPARKLIDKGVHVSIATDFNPGSCHIKSMPFIIGLSCIYLGLSIEEALKAATWSGACAINEQERIGSIEVGKKADLIIWDLDTIDQIPYNIINAPIVNVIKDGVPLITLD,soluble
18,MTEEIVELVLRERISPLLRSHGGDLSLSQIKDKTVFVRFSGACRFCPAAHETVEKIVQAMIREYFKDDNIDVILENSVSDDLLEQAKNILRKPK,not soluble
19,MGSDKIHHHHHHMSDFHHGVQVVEINDGTRVISTVSTAIIGMVCTASDADAATFPLNKPALITSVQSAIAKAGTKGTLAASLQAIADQSKPVIVVVRVAEGTGDDAEAQTISNIIGGTDESGNYTGLKALLTAEAVTGVKPRILGVPGLDSLEVATALAPICQKLRAFGYISAWDCQNISEAMLYRENFSQRELMVIWPDFLAWDTTANATETVWATARALGLRAKIDQDTGWHKTLSNVGVNGVTGISASVFWDLQESGTDADLLNEAGVTTLIRKDGFRFWGNRCCSDDPLFLFENYTRTAQVIADTMAAGHMWAVDKPITATLIKDIVAGINAKFREMKTAGYIVDATCWFDESANDAATLKAGKLYIDYDYTPVPPLENLTLRQRITDKYLANLVSSVNSN,not soluble
20,MGSDKIHHHHHHMTIAIIIATHGVAAEQLLKTTEMLIGEQENVATIDFVPGENAETIMEKYQAKLSGDLAHCDKVLFLVDTWGGSPFNAANRVSEGKDNMDIVTGVNVPMLVETFMARDDGPSLDELVAIALETGRTGVRALRYQEPETEPTAPTSEVPAQPAASQAEPQPAMVTPNQEGHLEIGLARIDDRLIHGQVATRWTKESRVSRIVVVSDEVAKDTVRATMLKSVAPPGVTAHVVNVDKMVRVYNNPEYAGERMMLLFTNPTDVLRLSDAGVDFKSINVGGMAYRDGKKMITNAVSVDDKDIAAFKALDAKGIELDVRKVSNDNRQYMMDLLKKNNLL,not soluble
21,MNTCRGQHGPRRPEAGAAGHRAHVDGGQRGPGGQQEPDWHKAGATIPRLPSPSGSPWRREQDPAPGEPPHIPAHGNRPGGQEIRPRIPGLDREARPAVPPTHSPSYRIRLAGSEPSLVQAAPGQAVQLFCPGNIPPEFQAGWQKEGRPISSNRYQLQADGSLIISRLRPEDAGIYSCGSHRPGHEPQEIQLRVTGGDMAVLPEGQPRHFPEPRNPDLGHGPPHRGTGAEAGGHRVLSPSHPRPATRLRLDRTQPGVVDASPGQRIRLTCRAEGFPVPTIEWQRDGQLVSSPRHQVQPDGSLVISRVDVEDGGYYSCVAFNGQDRDQRWVQLRVLRELTITGLPPAVTVAEGDTARLLCVVAGESVNIRWSRNGLPIQADGHRVHQSPDGTLLIHNLRPRDEGSYTCSAFRGSQAVSRSTEVKVALPAPAAQSRDLGKDCIDQPELANCALILQAQLCGNEYYSSFCCASCSRFQPNAQPVWQQG,soluble

# Source: the DeepSol protein solubility set
